Assay results as given in paper PMC6150519.
Each block holds one substance with its values, some of them ahead of it.

Assays:
GIRK1/2-CFP [1] = target: GIRK1/2-CFP
GIRK1/2-CFP [2] = target: GIRK1/2-CFP; remark: listed apart in the source
GIRK1/2-CFP [3] = assay: FRET or BRET; acceptor bleaching under TIRF illumination in living HEK293T cells co-transfected with receptor-YFP (or prestin-YFP) and GIRK1/2-CFP; G protein subunits not additionally transfected; absence or presence of oxo-M (10 uM)

agonist-induced GIRK channel current density (ΔImax), oxo-M 10 uM, tandem constructs M1R-YFP-34/100/265-GIRK1/2, PTX (-); decreased with the increase in the linker length (GIRK1/2-CFP [1]): 11.3 pA/pF
Substance: M1R-YFP (from UniProt P04761 1-460) (receptor)

agonist-induced GIRK channel current density (ΔImax), oxo-M 10 uM, tandem constructs M2R-YFP-100/265/535-GIRK1/2, PTX (-); not changed with the increases in the linker length (GIRK1/2-CFP [2]): 62 pA/pF
Substance: M2R-YFP (from UniProt P06199 1-466) (receptor)

FRET efficiency (GIRK1/2-CFP [3]): 5.5%
Substance: receptor-YFP with the long chain in the middle of M2R-i3 (K221-P379) replaced with SGGGS
